# Values quoted from earlier work, collected in article PMC3951274.
# How the values were obtained:
# [1] = molecular target: α1(I)127-138 THP 127-138 (Homo sapiens) (UniProt P02452)
# [2] = molecular target: [α2(IV)454-465][α1(IV)437-448] heterotrimeric THP α2(IV)454-465, α1(IV)437-448 (Homo sapiens) (UniProt P02462)
# Chain of UniProt P02462 (P02462 173-1669, chain 1 of 2): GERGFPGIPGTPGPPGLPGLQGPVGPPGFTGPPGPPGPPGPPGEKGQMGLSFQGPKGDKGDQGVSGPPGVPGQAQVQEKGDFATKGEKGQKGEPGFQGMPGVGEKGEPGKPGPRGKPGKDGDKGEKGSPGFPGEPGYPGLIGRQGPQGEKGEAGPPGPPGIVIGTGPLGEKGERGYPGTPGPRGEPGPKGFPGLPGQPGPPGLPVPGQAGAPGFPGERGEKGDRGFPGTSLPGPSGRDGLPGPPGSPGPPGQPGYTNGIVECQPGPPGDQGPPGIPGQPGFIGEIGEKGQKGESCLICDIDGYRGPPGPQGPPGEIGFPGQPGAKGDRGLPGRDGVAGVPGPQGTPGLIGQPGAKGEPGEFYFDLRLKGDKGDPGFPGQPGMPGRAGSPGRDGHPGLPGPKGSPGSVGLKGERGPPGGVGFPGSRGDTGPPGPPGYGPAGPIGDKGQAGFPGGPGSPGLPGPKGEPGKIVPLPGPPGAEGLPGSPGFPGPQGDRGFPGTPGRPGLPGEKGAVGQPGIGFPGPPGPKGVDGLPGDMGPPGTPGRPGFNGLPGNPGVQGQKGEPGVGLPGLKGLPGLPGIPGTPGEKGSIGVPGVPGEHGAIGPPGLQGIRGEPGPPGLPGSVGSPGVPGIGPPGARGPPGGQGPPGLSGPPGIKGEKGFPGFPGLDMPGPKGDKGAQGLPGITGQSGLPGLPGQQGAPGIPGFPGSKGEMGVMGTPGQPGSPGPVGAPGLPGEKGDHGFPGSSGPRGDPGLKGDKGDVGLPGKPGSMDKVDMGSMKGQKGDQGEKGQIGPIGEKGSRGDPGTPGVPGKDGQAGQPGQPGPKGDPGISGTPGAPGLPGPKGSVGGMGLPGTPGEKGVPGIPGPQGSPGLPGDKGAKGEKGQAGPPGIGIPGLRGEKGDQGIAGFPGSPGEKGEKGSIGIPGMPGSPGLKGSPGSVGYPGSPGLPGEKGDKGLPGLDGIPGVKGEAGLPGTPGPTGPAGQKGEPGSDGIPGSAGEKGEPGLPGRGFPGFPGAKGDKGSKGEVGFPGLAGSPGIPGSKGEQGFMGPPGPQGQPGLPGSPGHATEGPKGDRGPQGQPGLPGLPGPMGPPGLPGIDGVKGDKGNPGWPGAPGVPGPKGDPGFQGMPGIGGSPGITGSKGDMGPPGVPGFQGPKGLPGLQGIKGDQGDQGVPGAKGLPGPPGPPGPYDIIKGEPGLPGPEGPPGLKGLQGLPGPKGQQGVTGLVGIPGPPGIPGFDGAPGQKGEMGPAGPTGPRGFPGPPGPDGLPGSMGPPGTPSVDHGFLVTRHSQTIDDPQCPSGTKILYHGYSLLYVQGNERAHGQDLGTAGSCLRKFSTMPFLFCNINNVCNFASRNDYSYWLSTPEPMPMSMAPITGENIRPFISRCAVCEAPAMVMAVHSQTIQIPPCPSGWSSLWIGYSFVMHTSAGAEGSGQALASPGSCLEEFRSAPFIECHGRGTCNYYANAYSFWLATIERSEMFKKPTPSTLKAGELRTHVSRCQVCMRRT
# Chain of UniProt P02462 (P08572 184-1712, chain 2 of 2, further chain): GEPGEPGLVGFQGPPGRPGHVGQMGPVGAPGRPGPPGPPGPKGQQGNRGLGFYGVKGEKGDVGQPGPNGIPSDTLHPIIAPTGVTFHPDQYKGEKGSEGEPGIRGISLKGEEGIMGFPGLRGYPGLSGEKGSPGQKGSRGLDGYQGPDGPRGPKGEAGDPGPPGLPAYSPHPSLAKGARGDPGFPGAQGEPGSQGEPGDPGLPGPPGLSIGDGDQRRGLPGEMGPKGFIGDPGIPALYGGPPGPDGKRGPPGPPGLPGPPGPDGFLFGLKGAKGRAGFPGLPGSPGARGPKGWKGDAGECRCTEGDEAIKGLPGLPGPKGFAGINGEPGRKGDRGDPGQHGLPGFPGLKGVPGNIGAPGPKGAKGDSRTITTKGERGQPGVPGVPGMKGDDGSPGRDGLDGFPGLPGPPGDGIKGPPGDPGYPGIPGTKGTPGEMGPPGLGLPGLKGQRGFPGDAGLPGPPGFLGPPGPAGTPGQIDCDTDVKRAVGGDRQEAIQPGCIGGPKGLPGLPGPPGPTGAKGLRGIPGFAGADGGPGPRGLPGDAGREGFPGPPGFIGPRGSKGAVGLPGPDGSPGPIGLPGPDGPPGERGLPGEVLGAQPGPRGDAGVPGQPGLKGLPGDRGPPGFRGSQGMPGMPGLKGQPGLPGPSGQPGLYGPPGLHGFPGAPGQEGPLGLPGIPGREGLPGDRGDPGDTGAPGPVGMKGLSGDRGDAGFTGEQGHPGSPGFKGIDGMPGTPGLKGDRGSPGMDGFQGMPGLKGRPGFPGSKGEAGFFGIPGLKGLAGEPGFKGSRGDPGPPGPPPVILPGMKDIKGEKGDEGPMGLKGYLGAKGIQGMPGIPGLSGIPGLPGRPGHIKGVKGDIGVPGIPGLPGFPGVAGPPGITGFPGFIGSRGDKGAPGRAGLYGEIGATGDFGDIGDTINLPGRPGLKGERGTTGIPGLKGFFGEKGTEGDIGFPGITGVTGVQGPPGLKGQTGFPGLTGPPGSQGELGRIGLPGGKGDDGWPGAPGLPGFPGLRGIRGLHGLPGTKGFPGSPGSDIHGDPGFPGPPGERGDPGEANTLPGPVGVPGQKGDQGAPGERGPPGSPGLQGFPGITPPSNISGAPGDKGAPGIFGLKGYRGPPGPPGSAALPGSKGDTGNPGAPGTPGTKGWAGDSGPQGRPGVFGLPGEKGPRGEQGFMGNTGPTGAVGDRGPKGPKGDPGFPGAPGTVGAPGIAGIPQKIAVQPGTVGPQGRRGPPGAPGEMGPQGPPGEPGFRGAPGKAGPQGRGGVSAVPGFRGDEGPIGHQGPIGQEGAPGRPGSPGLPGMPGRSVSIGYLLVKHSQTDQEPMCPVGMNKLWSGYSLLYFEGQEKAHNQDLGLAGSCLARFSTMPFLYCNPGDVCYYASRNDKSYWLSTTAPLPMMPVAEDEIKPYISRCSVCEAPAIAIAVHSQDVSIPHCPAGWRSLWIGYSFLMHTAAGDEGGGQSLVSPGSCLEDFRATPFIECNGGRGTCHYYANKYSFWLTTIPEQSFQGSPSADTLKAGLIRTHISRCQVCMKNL
Kd [1] [µM],Kd [2] [µM],Substance
0.4,–,integrin α2 I-domain (from UniProt P17301)
–,20,integrin α1β1 (from UniProt P56199)
